Data as given in patent US20240002497A1.

Experiments:
[1] = molecular target: huNav1.7α (human Nav1.7 alpha subunit, expressed without β subunits) (human) (UniProt Q15858); assay: FACS, HEK293 cells; SD MFI 2
[2] = molecular target: huNav1.7α + β1-β2-β3 (human Nav1.7α co-expressed with Navβ1, Navβ2 and Navβ3) (human) (UniProt Q15858); assay: FACS, CHO Flp-In cells; SD MFI 12
[3] = molecular target: huNav1.7α + β1 (human Nav1.7α co-expressed with Navβ1) (human) (UniProt Q15858); assay: FACS, HEK293 cells; SD MFI 6

- Mean MFI [1]: 723 MFI
- Mean MFI [2]: 566 MFI
- Mean MFI [3]: 778 MFI
Substance: Negative control (Table 33)
